The nanobody polyreactivity screen of Harvey et al. (2022)

Experiment: yeast display, Sf9 membrane polyspecificity reagent, FACS + sequencing; frameworks hold sequencing errors
Procedure, shortened: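 A nanobody's polyreactivity label depends on the gate it was sorted from. Yeast display cells were stained with 10% biotinylated, detergent-solubilized Sf9 membrane reagent for 1 hour at 4 °C, enriched on streptavidin microbeads and sorted by FACS. The low and high (top ~1%) gates were set on anti-HA fluorescence for expression and streptavidin fluorescence for reagent binding.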

Sequence	polyreactivity (PSR sort gate)
QLQLVESGGGLVQAGGSLRLSCAASGRIFQDNPKGWYRPPPSKERELVAAISISGGITYYADSVKGRFTISRDNAKNTVYLQMNSLKPEDTAVYYCNKSISARLPGRYDYWGQGTQVTVSS	low polyreactivity
QVQLVESGGGLVQAGGILRLSCAASGRIFGGNAMGWYRQSPGKEREFVAAITWRGGTTYYADSVKGRFTISRDNAKNTVYLQMNSLKPEDTAVYYCNAMPYTRNTGYDYWGQGTQVTVSS	high polyreactivity
QVQLVESGGGLVQAGGSLRLICAASGSTFGFYGMGWYRQAPGKERELVASIDSRGDSTYADSVKGRFTISRDNAKKTVYVQMNSLKPEDTAVYYCAAESWYTWFDSWGQGTQVTVSS	low polyreactivity
QVQLVESGGGLVQAGGSLRLSCAASGRTFRHNAMGWYRQAPGKERELVAAISKSGGRTYYADSVKGRFTISRDNAKNTVYLQMNSLKPEDTAVYYCAAPLYVSTSGEVGYWGQGTQVTVSS	high polyreactivity
QVQLQESGGRLVQAGGSLRLSCAATGTIFTERFMGWYRQAPGKERELVAVISPGTSTNYADSVKGRFTISRDNAKNTVYLQMNSLKPEDTAVYYCAADWSTGNTLPYWGQGTQVTVSS	high polyreactivity
QVQLVESGGGLVQAGGSLRLSCAASGFTFNAYAMGWYRQAPGKERELVAAINVSGGITYYADSVKGRFTISRDNAKNTVYLQMNSLNPEDTAVYYCAKGLDVVQRSEFDYWGQGTQVTVSS	low polyreactivity
QVQLVESGGGLLQAGGSLRLSCAASGRTFATYAMGWYRQAPGKERELVAAITSGGSTNYADSVKGRFTISRDNAKNTVYLQMNSLKPEDTAVYYCNAYKTNRGSGPWYTGRYDYWGQGTQVTVSS	low polyreactivity
QVQLVESGGGLVQAGGSLRLSCAASGFIFDGYAMGWYRQAPGKERELVAAIDSGGDRTYYADSVKGRFTISRDNAKYTVYLQMNSLKPEDTAVYYCAADSSDPTGYDYWGQGTQVTVSS	low polyreactivity
QVQLVESGGGLVQAGGSLRLSCAASGSTFPDNAMGWYRQAPGKERELVAAISFSSGSTYYADSVKGRFTISRDNAKNTVYLQMNILKPEDTAVYYCAVANPSQYEWIAYYYWGQGTQVTVSS	low polyreactivity
QVQLVESGGGLVQAGGSLRLSCAASGSIFDHYARGWYRQAPGKDRELVAAISRSAGSTYYADSVKGRFTISRDHAKNTVYLQMNSLKPEDTAVYYCAADGKYYHRRPGWPIYDYWGQGTQVTVSS	high polyreactivity
QVQLVESGGGLVQAGGSLRLSCAASGFTFSSYAMGWYRQAPGKERELVAAISTRGGSTYYADSVKGRFTISRDNAKNTVYLQMNSLNPEDSAVYYCAAPVNTSGDEYGYWGQGTQVTVSS	low polyreactivity
QVQLVESGGGLVQAGGSLRLSCAASGSIFKRYAMGWDRQAPGKERELVASISSRGSSTNYADSVKGRFTISRDNAKNTVYLQMNSLKPEDTAVYYCAAEVYRGKYWSTYRGGDYWGQGTQVTVSS	high polyreactivity
QVQLVESGGGLVQAGGSLRLSCAASGSIFVWYDLGWYRQAPGKERELVATISLSGVSTYYADSVKGRFTISRDNAKNTVYLQMNSLKPEDTAVYYCAADFVEQGEDDYWGQGTQVTVSS	low polyreactivity
QVQLVESGGGLVQAGGSLRLSCAASGSTLFWNAIGWYRQAPGKERELVAVISFSGVSTYYADSVKGRFTISRDNAKNTVYLQMNSLKPEDTAVYYCAAEVPHWPYYGRLHDRDYWGQGTQVTVSS	low polyreactivity
QVQLVESGGGLVQAGGSHRLSCAASGFTFGYYVMGWYRQAPGKERELVAAISKRGSSTYYADCVKGRFTISRDNANTTVYLQMNSLKPVDTAVYYCAADGVYSHKDGHWGQGTQVTVSS	high polyreactivity
QVQLVESGGGLVQAGGSLRLSCAASGFTFSAYDMGWYRQAPGKERELVAAISYSGGSTYYADSVKGRFTISRDTAKNTVYLQMNSLKPEDTAVYYCAADGYYTDYWGQGTQVTVSS	high polyreactivity
QVQLVESGGGLVQAGGSLRLSCADSGSTIPKYAMGWSRQAPGKERELVAVITSGGSTYYADSVKGRFTISRDNAKNTVYLQMISLKPEDTAVYYCAARKYRRFDYWGQGTQVTVSS	high polyreactivity
QVQLVESGGGLVQAGGSLRLSCAASGRTFYGNAMGWYRQAPGKERELVAAISWSGGSTYYADSVKGRFTISRDNAKNTVYLQMNSLKPEDTAVYYCNADYFAWDLMYYWGHGTQVTVSS	low polyreactivity
QVQLVESGGGLVQAGGSLRLSWAASGGIFKVYGMRWYRQAPGKERELVAAISWTTGGTYYADSVKGRFTISRDNAKNTVYLQMNSLKPEDTAVYYCAAEYADSWSAFDWNYYYWGQGTQVTVSS	high polyreactivity
QVQLVESGGGLVQAGGSLRLSCSASGSIFKYYTMGWYRQAPGKERELVASINGGGSTNYADSVKGRFTISRDNAKNTVYLQMNSLKPEDTAVYYCNARYWWQDGYWGQGTQLTVSS	high polyreactivity
QVQLVESGGGLVQAGGSLRLSCAASGSTFYSYAMGWYRQAPGKERELVAAISWSGGSTYYADSVKGRFTISRDNAKNTVYLQMNSLKPEDTAVYYCAATRTRGYDGYGMYYWGQGTQVTVSS	high polyreactivity
